According to patent US20190389914A1 (University of California, published 2019):
Positions count from the first letter of the chain named.

Tests used:
Test in all cases: Y2H, beta-gal staining
[1] = biological target: T1, GAL4 activation domain fusion to HAB1^V393R (Arabidopsis thaliana (Mouse-ear cress), UniProt Q9CAJ0 4-511)
T1 construct: Mutant of the pACT-HAB1 template, which lacks the three N-terminal amino acids of HAB1; Denoted HAB1^!
T1 sequence: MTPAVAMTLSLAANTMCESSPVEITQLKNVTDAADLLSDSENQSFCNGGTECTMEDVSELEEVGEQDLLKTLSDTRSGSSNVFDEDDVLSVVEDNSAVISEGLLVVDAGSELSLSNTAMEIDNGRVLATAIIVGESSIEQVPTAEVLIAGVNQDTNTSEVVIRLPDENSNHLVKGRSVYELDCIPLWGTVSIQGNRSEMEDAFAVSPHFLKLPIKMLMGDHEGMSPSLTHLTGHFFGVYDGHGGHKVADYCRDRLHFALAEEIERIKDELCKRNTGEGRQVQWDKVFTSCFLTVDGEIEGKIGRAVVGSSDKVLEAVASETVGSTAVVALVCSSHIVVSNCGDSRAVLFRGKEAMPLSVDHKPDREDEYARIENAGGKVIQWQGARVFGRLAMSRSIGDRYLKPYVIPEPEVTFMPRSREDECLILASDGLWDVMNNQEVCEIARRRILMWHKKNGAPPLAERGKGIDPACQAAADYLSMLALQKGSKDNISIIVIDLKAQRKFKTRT

[2] = biological target: T2, GAL4 activation domain fusion to HAB1 V393Q (Arabidopsis thaliana (Mouse-ear cress), UniProt Q9CAJ0 4-511)
T2 construct: Mutant of the pACT-HAB1 template, which lacks the three N-terminal amino acids of HAB1
T2 sequence: T1 sequence with R390Q

[3] = biological target: T3, GAL4 activation domain fusion to HAB1 E203T (Arabidopsis thaliana (Mouse-ear cress), UniProt Q9CAJ0 4-511)
T3 construct: Mutant of the pACT-HAB1 template, which lacks the three N-terminal amino acids of HAB1
T3 sequence: T1 sequence with E200T, R390V

[4] = biological target: T4, GAL4 activation domain fusion to HAB1 V393K (Arabidopsis thaliana (Mouse-ear cress), UniProt Q9CAJ0 4-511)
T4 construct: Mutant of the pACT-HAB1 template, which lacks the three N-terminal amino acids of HAB1
T4 sequence: T1 sequence with R390K

[5] = biological target: T5, GAL4 activation domain fusion to HAB1 E203D (Arabidopsis thaliana (Mouse-ear cress), UniProt Q9CAJ0 4-511)
T5 construct: Mutant of the pACT-HAB1 template, which lacks the three N-terminal amino acids of HAB1
T5 sequence: T1 sequence with E200D, R390V

Measured: binding result

B1: GAL4 DNA binding domain fusion to PYR1 (pBD-PYR1), wild type (receptor)
chain: MKLLSSIEQACDICRLKKLKCSKEKPKCAKCLKNNWECRYSPKTKRSPLTRAHLTEVESRLERLEQLFLLIFPREDLDMILKMDSLQDIKALLTGLFVQDNVNKDAVTDRLASVETDMPLTLRQHRISATSSSEESSNKGQRQLTVSMPSELTPEERSELKNSIAEFHTYQLDPGSCSSLHAQRIHAPPELVWSIVRRFDKPQTYKHFIKSCSVEQNFEMRVGCTRDVIVISGLPANTSTERLDILDDERRVTGFSIIGGEHRLTNYKSVTTVHRFEKENRIWTVVLESYVVDMPEGNSEDDTRMFADTVVKLNLQKLATVAEAMARNSGDGSGSQVT
notes: Yeast two-hybrid bait expressed in S. cerevisiae; also called WT
no binding (tested: 10 µM ABA): [1] | [2] | [3] | [4] | [5]
